The target of one data set is T1, mTIM-1 (Mus musculus, UniProt Q5QNS5).
T1 chain: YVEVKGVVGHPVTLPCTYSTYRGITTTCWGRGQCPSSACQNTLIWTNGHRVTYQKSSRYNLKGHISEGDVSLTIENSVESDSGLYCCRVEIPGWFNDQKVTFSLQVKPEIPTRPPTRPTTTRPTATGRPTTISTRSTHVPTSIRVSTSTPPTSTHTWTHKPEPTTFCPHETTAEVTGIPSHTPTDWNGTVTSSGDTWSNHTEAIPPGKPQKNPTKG
Put plainly: SPR. In general terms: In SPR one partner is held on a chip, and binding of the other changes the refractive index at the surface.

Data set [1] concerns the molecule itself. Put plainly: sedimentation equilibrium analytical ultracentrifugation.

This note sets out measurements from publication PMC7111020 (2007).

What is called Kd is the equilibrium constant for the complex coming apart.

B1: mTIM-1 ECD (protein)
chain: YVEVKGVVGHPVTLPCTYSTYRGITTTCWGRGQCPSSACQNTLIWTNGHRVTYQKSSRYNLKGHISEGDVSLTIENSVESDSGLYCCRVEIPGWFNDQKVTFSLQVKPEIPTRPPTRPTTTRPTATGRPTTISTRSTHVPTSIRVSTSTPPTSTHTWTHKPEPTTFCPHETTAEVTGIPSHTPTDWNGTVTSSGDTWSNHTEAIPPGKPQKNPTKG
Regarding B1, the Kd with mTIM-1 is roughly 0.6 µM.

B2: mTIM-2 20-129 (protein)
chain: ESHTAVQGLAGHPVTLPCIYSTHLGGIVPMCWGLGECRHSYCIRSLIWTNGYTVTHQRNSLYQLKGNISEGNVSLTIENTVVGDGGPYCCVVEIPGAFHFVDYMLEVKPE
Molecule B2 gave a Kd in data set [1] of roughly 300 µM.
